Experimental data from patent publication US5834244.
Where a chain is given by its changes, count along the chain named.

B1: IV-32B (designed binder)
chain: VREVCSEQAEPGPCKALMKRWYFDVTEGKCAPFYYGGCYGNRNNFDTEEYCAAVCGSA
B2: IV-49C (designed binder)
chain: B1 chain with K15R, Y34I
B3: IV-54C (designed binder)
chain: B1 chain with K15R, Y34V

target: rabbit TF-FVIIa in the PT assay (rabbit thromboplastin with rabbit plasma) (rabbit)

fold increase of clotting time over baseline, PT assay in rabbit plasma (fold increase over baseline at 50 µM) | Binder
1.2 | B1
4.4 | B2
3.5 | B3
